Experimental data from paper PMC8388095, “Specificity of Small c-Type Cytochromes in Anaerobic Ammonium Oxidation” (ACS Omega, 2021).

Key:
[1] = biological target: Kuenenia stuttgartiensis hydroxylamine oxidase (Kuenenia stuttgartiensis) (UniProt Q1PX48)
purified protein = substrate: NO; experiment: purified protein; assay type: biochemical, Candidatus Kuenenia stuttgartensis; conditions: electron acceptor 50 μM bovine cytochrome c, 20 mM potassium phosphate pH 7.0, 37 °C, kcat per KsHAO trimer

Molecule: Kustc0563nt (Kustc0563 after cleavage of the N-terminal His-tag) (natural protein)
- Vmax NH2OH of hydroxylamine oxidation by KsHAO with 50 μM Kustc0563 as the electron acceptor (reduction of the acceptor followed at 550 nm) [1]: 15.8 µmol/min/mg
- kcat NH2OH (KsHAO trimer) of hydroxylamine oxidation by KsHAO with 50 μM Kustc0563 as the electron acceptor [1]: 48.4 s^–1

Molecule: bovine (Bos taurus) mitochondrial cytochrome c (from UniProt P62894 1-105) (natural protein)
- Vmax NH2OH of hydroxylamine oxidation by KsHAO with 50 μM BtCytc as the electron acceptor (reduction of the acceptor followed at 550 nm) [1]: 2.7 µmol/min/mg
- kcat NH2OH (KsHAO trimer) of hydroxylamine oxidation by KsHAO with 50 μM BtCytc as the electron acceptor [1]: 8.4 s^–1

B1: KsHAO (Candidatus Kuenenia stuttgartensis) (protein)
chain: CAMENGVAMAEGPTFQDVASQVFGQPVGPDNDGTLYIFGLTAKYTEPEYVDGRGPYKSFLKMLPSIRWYDPEHYWTNGSQTEGVFKNEECVLCHTVQTPTIVNDWKQSSHGSKDIRRGIGIKKDGKPVEDLVGCADCHGNNHQKLEMPTYKLCNDCHPKETAEHRAGGLGSHTHAYTVNVLEFSWHVGKPAEEVTGCAHCHAIAENRCSGCHTRHKFDPAEARKPTACRVCHMGIDHDEWAMYNTSIHGALYEAESARMDWGKKLKKGNYRVPTCAYCHMQNGDHNPQRFGTIYSDMGMFQVDRGAPKHKAKRDSWIKLCQDCHSPRFAADKLKEMDAGVNLSFTKWREAAAVIVGCYLDGVVDPMPEGSAPDWYGHYTFSLLPGGDPRFYATSNLERLGLEMICYLTGNVYKAYAHMSMYNQTYGNGSAFEQDRKLVEIKTEAAKLRRFAAIEKKIGLEHKSADFWKHGEYLDLLPGWKRKPGDVDVEWFKRTDIPHRANADAGVEIHH
notes: octaheme c-type cytochrome, trimeric; preparation not described
- Km (purified protein): 5.8 ± 0.7 µM
- Vmax (purified protein): 2.7 µmol/min/mg
- kcat (purified protein): 8.4 s⁻¹
- kcat/Km (purified protein): 1.4e+06 M⁻¹ s⁻¹
